In US20260049115A1 (UNIVERSITY OF CHICAGO, published 2026):

T1: recombinant mouse IL-2Rα (mouse, UniProt P01590 22-236, limits assumed)
T1 construct: Bought recombinant protein; also called rm IL-2Rα
T1 sequence (looked up): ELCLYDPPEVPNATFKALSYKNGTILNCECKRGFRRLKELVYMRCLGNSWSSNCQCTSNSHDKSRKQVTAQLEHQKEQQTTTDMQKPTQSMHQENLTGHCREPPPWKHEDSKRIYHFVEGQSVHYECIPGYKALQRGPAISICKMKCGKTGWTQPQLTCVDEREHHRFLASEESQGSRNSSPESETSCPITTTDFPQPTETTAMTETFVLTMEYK


How the values were obtained:
[1] = target: CCR5 on ThP1 human monocytes (human, UniProt P51681 1-352); test: cell-based or functional assay
[2] = target: T2, collagen type I; test: SPR (Biacore X100), collagen I on CM5 chip, 1:1 Langmuir fit
T2 construct: Bought protein; also called collagen I; type I collagen
Method: (§1) FIGS. 6A-6D. CBD-CCL4 fusion protein binds to collagen I and collagen III and maintains its activity. (A) WT CCL4 and CBD-CCL4 were analyzed by SDS-PAGE followed by Coomassie blue staining. (B,C) Affinity of CBD-CCL4 against (B) collagen I and (C) collagen III was measured by SPR. SPR chips were functionalized with collagen I (˜500 RU) and collagen III (˜700 RU), and the CBD-CCL4 was flowed over the chips at indicated concentrations. Curves represent the obtained specific responses (in resonance units (RU)) to CBD-CCL4. Experimental curves were fitted with 1:1 Langmuir fit model. Binding kinetics values [dissociation constants (KD) and rate constants (kₒₙ and koff)] determined from the fitted curves are shown. (D) GPCR activation assay comparing signaling of WT CCL4 and CBD-CCL4 in ThP1 monocytes. EC₅₀ values were calculated using a non-linear dose-response curve fit model. Each point represents mean±SEM, n=3.
(§2) CBD-CCL4 collagen binding measurements using SPR. SPR measurements were made with a Biacore X100 SPR system™ (GE Healthcare). Collagen I or collagen III was immobilized via amine coupling on a CM5 chip (GE Healthcare) for ˜1000 resonance units (RU) according to the manufacturer's instructions. […] Specific binding of CBD-CCL4 to collagen was calculated automatically using the response to a non-functionalized channel as a reference. […]

[3] = target: T2, collagen type I; test: SPR, collagen I immobilised on the chip, CBD-CCL4 flowed at 15.6 to 500 nM, 1:1 Langmuir fit [panel B]
Method: as §1, §2

[4] = target: T3, collagen type III; test: SPR (Biacore X100), collagen III on CM5 chip, 1:1 Langmuir fit
T3 construct: Bought protein; also called collagen III; type III collagen
Method: as §1, §2

[5] = target: T3, collagen type III; test: SPR, collagen III immobilised on the chip, CBD-CCL4 flowed at 15.6 to 500 nM, 1:1 Langmuir fit [panel C]
Method: as §1, §2

[6] = target: T3, collagen type III; test: ELISA on plates coated with collagen III; apparent KD by nonlinear regression, one-site specific binding [panel C]
Method: (§3) Detection of CBD-IL-2 binding to collagen proteins. The measurement is performed as described previously (Ishihara et al., Sci Transl Med 9:doi:10.1126/scitranslmed.aan0401, 2017). 96-well ELISA plates (Greiner Bio One) were coated with 10 μg/mL collagen I (EMD Millipore), collagen III (EMD Millipore), or 1 μg/mL recombinant mouse IL-2Rα (SinoBiological) in PBS for 1 h at 37° C., followed by blocking with 2% BSA in PBS with 0.05% Tween 20 (PBS-T) for 1 hr at RT. Then, wells were washed with PBS-T and further incubated with 10 μg/mL CBD- or unmodified-IL-2 for 1 hr at RT. After 3 washes with PBS-T, wells were incubated for 1 hr at RT with HRP-conjugated antibody against rat IgG (Jackson ImmunoResearch). After washes, bound CBD-IL2 and IL-2 were detected with tetramethylbenzidine substrate by measurement of the absorbance at 450 nm with subtraction of 570 nm. The apparent dissociation constant (KD) values were obtained by nonlinear regression analysis in Prism software (v7, GraphPad Software) assuming one-site specific binding.

[7] = target: T1, recombinant mouse IL-2Rα; test: ELISA on plates coated with recombinant mouse IL-2Rα; apparent KD by nonlinear regression, one-site specific binding [panel C]
Method: as §3

[8] = target: T2, collagen type I; test: ELISA on plates coated with collagen I; apparent KD by nonlinear regression, one-site specific binding [panel C]
Method: as §3

T3 sequence (P02461 154-1221): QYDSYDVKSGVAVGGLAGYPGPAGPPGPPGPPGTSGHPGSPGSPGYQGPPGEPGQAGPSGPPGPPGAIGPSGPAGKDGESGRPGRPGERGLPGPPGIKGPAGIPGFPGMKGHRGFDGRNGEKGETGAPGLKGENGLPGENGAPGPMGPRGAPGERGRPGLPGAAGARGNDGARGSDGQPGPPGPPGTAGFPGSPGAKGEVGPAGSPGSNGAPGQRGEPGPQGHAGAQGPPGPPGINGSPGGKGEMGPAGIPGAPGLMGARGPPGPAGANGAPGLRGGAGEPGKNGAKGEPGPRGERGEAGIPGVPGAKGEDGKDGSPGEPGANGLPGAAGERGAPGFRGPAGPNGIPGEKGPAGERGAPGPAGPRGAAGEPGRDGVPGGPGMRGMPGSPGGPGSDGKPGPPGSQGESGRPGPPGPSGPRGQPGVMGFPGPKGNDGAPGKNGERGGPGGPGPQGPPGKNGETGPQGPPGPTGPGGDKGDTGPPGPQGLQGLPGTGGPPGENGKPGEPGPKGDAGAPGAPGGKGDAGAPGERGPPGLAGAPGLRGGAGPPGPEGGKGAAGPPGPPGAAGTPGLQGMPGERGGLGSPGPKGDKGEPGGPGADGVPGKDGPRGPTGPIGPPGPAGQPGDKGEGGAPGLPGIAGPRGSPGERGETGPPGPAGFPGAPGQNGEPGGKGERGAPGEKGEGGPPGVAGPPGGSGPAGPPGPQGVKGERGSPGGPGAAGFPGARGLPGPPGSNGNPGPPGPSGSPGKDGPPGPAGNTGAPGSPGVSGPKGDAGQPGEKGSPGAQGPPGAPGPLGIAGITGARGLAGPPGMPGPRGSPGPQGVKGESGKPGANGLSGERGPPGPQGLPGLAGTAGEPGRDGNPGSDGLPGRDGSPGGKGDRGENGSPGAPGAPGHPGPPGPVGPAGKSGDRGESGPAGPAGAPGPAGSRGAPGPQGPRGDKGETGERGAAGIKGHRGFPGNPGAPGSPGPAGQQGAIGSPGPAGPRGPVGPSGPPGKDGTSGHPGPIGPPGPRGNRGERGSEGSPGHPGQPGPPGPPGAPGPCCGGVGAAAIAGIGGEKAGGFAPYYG
Sequence of CCR5 on ThP1 human monocytes (P51681 whole entry): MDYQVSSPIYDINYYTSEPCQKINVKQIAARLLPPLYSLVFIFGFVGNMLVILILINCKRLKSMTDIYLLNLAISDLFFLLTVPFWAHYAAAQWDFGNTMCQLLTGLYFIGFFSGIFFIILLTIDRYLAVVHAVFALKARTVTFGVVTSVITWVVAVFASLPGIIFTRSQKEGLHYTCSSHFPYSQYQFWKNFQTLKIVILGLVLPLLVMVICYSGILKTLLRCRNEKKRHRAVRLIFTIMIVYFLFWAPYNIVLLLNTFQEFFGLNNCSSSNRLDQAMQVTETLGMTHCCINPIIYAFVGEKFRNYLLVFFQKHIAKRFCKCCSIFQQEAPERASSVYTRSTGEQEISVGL

Binder	EC50, calcium flux (RFU) in ThP1 monocytes [panel D] [1] [nM]	Kd [2] [nM]	koff [3] [s⁻¹]	kon [3] [M⁻¹ s⁻¹]	Kd [4] [nM]	koff [5] [s⁻¹]	kon [5] [M⁻¹ s⁻¹]	Kd [6] [nM]	Kd [7] [nM]	Kd [8] [nM]
CBD-CCL4 (human vWF A3 domain and murine CCL4 fusion protein) (other, also called CBD-CCL4 fusion protein; vWF A3 domain-CCL4 fusion protein) CSQPLDVILLLDGSSSFPASYFDEMKSFAKAFISKANIGPRLTQVSVLQYGSITTIDVPWNVVPEKAHLLSLVDVMQREGGPSQIGDALGFAVRYLTSEMHGARPGASKAVVILVTDVSVDSVDAAADAARSNRVTVFPIGIGDRYDAAQLRILAGPAGDSNVVKLQRIEDLPTMVTLGNSFLHKLCSGFVRIGGGGSGGGGSAPMGSDPPTSCCFSYTSRQLHRSFVMDYYETSSLCSKPAVVFLTKRGRQICANPSEPWVTEYMSDLELNHHHHHH	7	33.4	0.0031	95000	14.5	0.0078	540000	–	–	–
CBD-fused IL-2 recombinant protein (the vWF A3 domain and mouse IL-2 fusion protein) (other, also called CBD-IL-2) CSQPLDVILLLDGSSSFPASYFDEMKSFAKAFISKANIGPRLTQVSVLQYGSITTIDVPWNVVPEKAHLLSLVDVMQREGGPSQIGDALGFAVRYLTSEMHGARPGASKAVVILVTDVSVDSVDAAADAARSNRVTVFPIGIGDRYDAAQLRILAGPAGDSNVVKLQRIEDLPTMVTLGNSFLHKLCSGFVRIGGGSGGGSPTSSSTSSSTAEAQQQQQQQQQQQQHLEQLLMDLQELLSRMENYRNLKLPRMLTFKFYLPKQATELKDLQCLEDELGPLRHVLDLTQSKSFQLEDAENFISNIRVTVVKLKGSDNTFECQFDDESATVVDFLRRWIAFCQSIISTSPQ	–	–	–	–	–	–	–	181	54.7	268
wild-type mouse IL-2 (His-tagged) (ligand, The entry includes the C-terminal 6xHis tag as printed; also called wild-type IL-2; unmodified-IL-2) PTSSSTSSSTAEAQQQQQQQQQQQQHLEQLLMDLQELLSRMENYRNLKLPRMLTFKFYLPKQATELKDLQCLEDELGPLRHVLDLTQSKSFQLEDAENFISNIRVTVVKLKGSDNTFECQFDDESATVVDFLRRWIAFCQSIISTSPQ	–	–	–	–	–	–	–	–	60	–
